Residue numbers refer to the chain shown, from its start.
How the values were obtained:
[1] = tested on: HIV-1 MN strain; assay: Neutralisation plaque assay (NPA) in MT-4 cells; format: cell-based
Description: A neutralisation plaque assay (NPA) was established in MT-4 cells (Harada, et al., 1985) with minor modifications (Sánchez, et al., 1993). Six-well plates (Costar, Calif.) were incubated with 1 ml of poly-L-lysine (50 μg/ml, Sigma) for 60 min at room temperature and washed three times in phosphate-buffered saline (PBS, pH 7). MT-4 cells (4×10^6/well) were added and incubated 2 h, after which unbound cells were removed. Neutralisation was performed with 100 plaque-forming units (pfu) of virus and five purified Fabs (S20, S19, S8, M02 and M025) at different concentrations. The virus-antibody mixture was incubated (37° C., 3 h), slowly added to the plates and adsorbed (37° C., 90 min), after which virus was removed and 2 ml of agarose medium (0.2% SeaPlaque agarose in complete RPMI medium) were added. Plates were incubated (37° C., 5% CO2 atmosphere), and 2 ml of agarose medium were added on day 3. Plaque production was counted with the naked eye on day 7. Neutralisation titer was calculated according to the formula % neutralisation=(1−p/n)×100, where p is the amount of virus produced in presence of the corresponding Fab, n is the mean amount of virus produced without Fab, measured by number of plaques in cultures.

[2] = tested on: HIV-1 LAI strain; assay: Infectivity reduction assay (IRA) in MT-2 cells, LAI; format: cell-based; conditions: Fab 10 μg/ml
Description: (§1) The infectivity reduction assay (IRA) was performed using in MT-2 cells. Virus titer of LAI, SF-2, MN and RF strains was determined in MT-2 cells and expressed as TCID50 (50% tissue culture infective doses), calculated by the Spearman-Karber formula. Five 10-fold virus dilutions were mixed with different concentrations of Fabs S20, S19, S8, M02 and M025 and incubated (37° C., 1 h, 5% CO2), then added to a 96-well microtiter plate containing 10^5 MT-2 cells/well. Fresh medium (100 μl) was added 4 days later. Cytopathic effect (CPE), characterised by the appearance of giant multinuclear cells, was quantified on day 7. Six replicate wells were made for each dilution. Neutralisation was calculated by the formula % neutralisation=(1−p/n)×100, where p is the mean titer in TCID50/ml of virus produced in cultures incubated with the correspondent mixture and n is the mean titer of virus produced in cultures incubated without Fabs. Each titer point is the mean of two individual experiments.

[3] = tested on: HIV-1 MN; assay: Infectivity reduction assay (IRA) in MT-2 cells, MN; format: cell-based; conditions: Fab 10 μg/ml
Description: as §1

[4] = molecular target: gp120 III-B (Human immunodeficiency virus type 1 group M subtype B, UniProt P04578); conditions: donor serum 1/200, Fab 0.01-30 μg/ml
[5] = tested on: HIV-1 SF-2; assay: Infectivity reduction assay (IRA) in MT-2 cells, SF-2; format: cell-based; conditions: Fab 10 μg/ml, SF-2, MT-2 cells
Description: as §1

[6] = tested on: HIV-1 RF; assay: Infectivity reduction assay (IRA) in MT-2 cells, RF; format: cell-based; conditions: Fab 10 μg/ml
Description: as §1

[7] = tested on: donor virus isolate (LTNP HIV-1); assay: IRA in PBMC with donor virus isolate; format: cell-based; conditions: Fab 25 μg/ml
Description: PBMC obtained from the patient in 1996 were cocultured with HIV-1-seronegative PBMC which had been stimulated for 3 days with phytohemagglutinin (PHA). Coculture was maintained in medium with interleukin-2 (IL-2) for at least 40 days (37° C., 5% CO2). Fresh PBMC were added each week and p24 antigen production was monitored every 7 days. Supernatant was harvested and characterised by TCID50% on stimulated PBMC. Supernatant (1 ml) from the coculture (1.3×10^3 TCID50%) was inoculated in 10×10^6 PBMC. After incubation (1 h, 37° C.), cells were centrifugated and 10 ml of RPMI with […] were added. Virus was grown and harvested. This first-passage virus stock was used to perform the IRA in PBMC. […] Medium with IL-2 was changed twice a week. After 14 days, the p24 assay was performed and TCID50% calculated. Neutralisation titer was calculated according to the formula given above.

[8] = tested on: HIV-1 Bal; assay: In vivo neutralisation of HIV-1 Bal infection in SCID-hu-PBMC mice; conditions: Fab 100 μg i.p. x3
Excerpt: (A) Neutralisation of the HIV-1 MN strain by IgM Fabs M02 and M025 and IgG Fabs S8, S19 and S20 determined by plaque assay (NPA) in MT-4 cells. […] SCID mice grafted with adult human PBMC (SCID-hu-PBMC) sensitive to HIV-1 infection were infected 2 weeks after reconstitution with cell-free HIV-1 Bal stocks containing 100 TCID50. […] Peritoneal cells were recovered after 15 days and co-cultured with PHA-activated PBMC from HIV-1-seronegative individuals. Co-cultures were monitored in ELISA for HIV-1 core antigen in supernatant at days 7 (left) and 14 (right), and were considered positive when p24 was >30 ng/ml.
CB.17 SCID/SCID mice were bred and maintained under specific pathogen-free conditions in the Centro Nacional de Biotecnologia animal facility. Eight- to 10-week-old non-leaky phenotype mice were reconstituted by i.p. injection of 20×10^6 freshly isolated normal human PBMC. […] Mice were infected 2 weeks after PBMC reconstitution by i.p. injection of 0.5 ml of diluted cell-free HIV-1 Bal stocks containing 100 TCID50. Two weeks after viral challenge, mice were killed by cervical dislocation and peritoneal cells obtained by washing with ice cold PBS. […] Co-cultures were monitored by ELISA for HIV-1 core antigen in supernatant on days 7 and 14, and were considered positive when p24 was >30 ng/ml.

[9] = tested on: HIV-1 R5 (Bal); assay: p24 quantification after PBMC infection, R5 strain; format: cell-based; conditions: p24 on day 7
Description: (§2) Excess virus and Fab were removed by washing, and PBMC incubated in complete RPMI 1640 at 37° C. Every two days after infection, half the culture supernatant (500 μl) was removed and replaced with fresh medium containing rhIL-2 and Fabs at the above concentration. Cell-free supernatants were tested for HIV-1 p24 antigen on day 7 using a commercial ELISA test (Coulter, Miami, Fla.). The percentage of neutralisation was calculated as the ratio between p24 levels for test samples a lone or with Fabs. Irrelevant HmFab P1 (10 μg/ml) was used as a negative control.

[10] = tested on: HIV-1 X4 (NL4-3); assay: p24 quantification after PBMC infection, X4 strain; format: cell-based; conditions: NL4-3, PBMC, p24 on day 7
Description: as §2

B1: Fab S8: human IgG1 anti-gp120 Fab from LTNP donor; light chain SEQ ID 2, heavy chain SEQ ID 4 (antibody, listed as Homo sapiens)
heavy: LESGGGLVKPGGSLRLSCAASGFTFSSYAMHWVRQAPGKGLEWVAFIWFDGSNERYADSVKGRFTITRDNPKNTLYLQMNSLRVEDTAVYYCVRRGGSILTGFHLDYWGQGTLVTVSSASTKGPSVFPLAPSSKSTSGGTAALGCLVKDYFPEPVTVSWNSGALTSGVHTFPAVLQSSGLYSLSSVVTVPSSSLGTQTYICNVNHKPSNTKVDKRVEPKSCDKTS
light: ELTQSPSSLSASVGDRVTITCRASQGIRDDLGWYQQKPGKAPKRLIYAASNLQSGVPSRFSGGGSGTEFTLTISSLQPEDFATYYCLQHNSYPLTFGGGTKVEIKRTVAAPSVFIFPPSDEQLKSGTASVVCLLNNFYPREAKVQWKVDNALQSGNSQESVTEQDSKDSTYSLSSTLTLSKADYEKHKVYACEVTHQGLSSPVTKSFNKGKVLIL
modifications: S8 Heavy chain; Light chain
% neutralisation ([1]; Fab 10 μg/ml): 100%
neutralisation [2]: poorly neutralised
% neutralisation [3]: greater than 90%
inhibition of gp120 binding of donor serum IgG [4]: inhibited
% neutralisation [5]: greater than 90%
% neutralisation [6]: greater than 90%
% neutralisation [7]: 32%
Fab-treated mice with undetectable p24 ([8]; co-culture day 7, 100 TCID50 HIV-1 Bal): 100%
Fab-treated mice with undetectable p24 ([8]; co-culture day 14, 100 TCID50 HIV-1 Bal): seven of eight
Fab concentration for 50% neutralisation [9]: less than 0.1 μg/ml
Fab concentration for 50% neutralisation [10]: less than 0.1 μg/ml

B2: Fab S19: human IgG1 anti-gp120 Fab; light chain SEQ ID 2, heavy chain SEQ ID 6 (antibody, listed as Homo sapiens)
heavy: B1 heavy with L7V, K9Q, G12R, T24S, Y28H, A29G
light: B1 light
modifications: S19 Heavy chain; Light chain
% neutralisation ([1]; Fab 20 μg/ml): 92%

B3: Fab S20: human IgG1 anti-gp120 Fab; light chain SEQ ID 2, heavy chain SEQ ID 8 (antibody, listed as Homo sapiens)
heavy: B1 heavy with L7V, K9Q, G12R, A19S, T24S, S26R, S27D
light: B1 light
modifications: S20 Heavy chain; Light chain
% neutralisation ([1]; Fab 1 μg/ml): 100%

— patent publication US20110059015A1, “VACCINE” (priority 2002, published 2011)
